Paper PMC9694023

Biological target: T1, endogenous IRF7 of HEK293 cells (human (endogenous in HEK293)), Q92985
T1 chain: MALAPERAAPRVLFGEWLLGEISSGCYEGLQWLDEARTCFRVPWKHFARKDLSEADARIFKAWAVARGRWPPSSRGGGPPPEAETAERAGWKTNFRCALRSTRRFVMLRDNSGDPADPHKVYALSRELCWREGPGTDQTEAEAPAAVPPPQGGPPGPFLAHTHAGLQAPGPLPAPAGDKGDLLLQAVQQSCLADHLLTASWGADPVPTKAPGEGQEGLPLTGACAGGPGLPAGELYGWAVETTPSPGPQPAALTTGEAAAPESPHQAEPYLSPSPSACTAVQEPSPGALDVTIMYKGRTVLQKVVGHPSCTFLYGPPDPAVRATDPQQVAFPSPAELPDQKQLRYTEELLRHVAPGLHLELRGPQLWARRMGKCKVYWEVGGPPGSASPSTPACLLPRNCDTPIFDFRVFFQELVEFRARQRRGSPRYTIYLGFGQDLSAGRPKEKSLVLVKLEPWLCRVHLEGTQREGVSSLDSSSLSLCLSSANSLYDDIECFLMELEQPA
Assay: native gel or EMSA
Details: remark: other sources report otherwise

B1: endogenous IRF7 of HEK293 cells, Q92985 1-503 (natural protein)
chain: MALAPERAAPRVLFGEWLLGEISSGCYEGLQWLDEARTCFRVPWKHFARKDLSEADARIFKAWAVARGRWPPSSRGGGPPPEAETAERAGWKTNFRCALRSTRRFVMLRDNSGDPADPHKVYALSRELCWREGPGTDQTEAEAPAAVPPPQGGPPGPFLAHTHAGLQAPGPLPAPAGDKGDLLLQAVQQSCLADHLLTASWGADPVPTKAPGEGQEGLPLTGACAGGPGLPAGELYGWAVETTPSPGPQPAALTTGEAAAPESPHQAEPYLSPSPSACTAVQEPSPGALDVTIMYKGRTVLQKVVGHPSCTFLYGPPDPAVRATDPQQVAFPSPAELPDQKQLRYTEELLRHVAPGLHLELRGPQLWARRMGKCKVYWEVGGPPGSASPSTPACLLPRNCDTPIFDFRVFFQELVEFRARQRRGSPRYTIYLGFGQDLSAGRPKEKSLVLVKLEPWLCRVHLEGTQREGVSSLDSSSLSLCLSSANSLYDDIECFLMELEQPA
- stoichiometry N: 2
